From publication PMC3025356, “Mechanism of the Ca^2+-Dependent Interaction between S100A4 and Tail Fragments of Nonmuscle Myosin Heavy Chain IIA” (Journal of Molecular Biology, 2011) come the findings set out here.

The test system of one data set is M200 filaments. The data set can be described thus: Stopped-flow turbidity, dissociation of M200 filaments on NaCl jump or dilution. Type of data set: biochemical, human. As for the experimental part:
Fig. 9 Dissociation of M200 filaments by S100A4. (a) Initially, M200 was added (i) from a concentrated stock in 0.5 M NaCl to give a final concentration of 5 μM M200 (with respect to the polypeptide chain) in 100 mM NaCl, 10 mM Hepes, and 0.1 mM Ca^2+ at pH 7.5 and 20 °C. A biphasic rise in turbidity was recorded for 200 s (continuous line). Then 10 μM S100A4 (with respect to monomer concentration) was added (ii), followed by 0.2 mM EGTA (iii) and 1 mM Ca^2+ (iv). […] (b) M200 was diluted (i) into 100 mM NaCl to form filaments as in (a), then 5 μM S100A4 was added (ii), causing a 54% drop in turbidity. A further 5 μM S100A4 (iii) caused turbidity to fall to almost zero. (c) Stopped-flow records monitoring the dissociation of 5 μM M200 filaments on jumping [NaCl] from 100 mM to 120 mM NaCl. Other components of the buffer were 20 mM Hepes, 1 mM Mg^2+, and 100 μM Ca^2+ at pH 7.5 and 20 °C. […] In the presence of 20 μM S100A4 (lower trace), the turbidity decreased by 87% with a rate constant of 0.2 s^− 1.
It is of interest to know whether S100A4 drives depolymerisation solely by binding to free M monomer and allowing the polymer equilibrium to readjust (i.e., via k− 4 and k5), or whether S100A4 also binds to the filament bundle and actively depolymerises an M200 unit (via k6 and k− 7). […] In an attempt to address this question, the dissociation rate of the M200 filament was followed on jumping the NaCl concentration from 100 mM to 120 mM in the absence and in the presence of S100A4 (Fig. 9c). Under these conditions in the absence of S100A4, turbidity dropped to about 50% of its initial value with a profile fitted to a double exponential (k1obs = 0.33 s^− 1 with 12% amplitude and k2obs = 0.037 s^− 1 with 43% amplitude, relative to the total amplitude expected for a full dissociation). Therefore, at the end point of this reaction, the filament concentration decreased by about 2-fold (turbidity is proportional to concentration over this range; Fig. S5b). There should also be a corresponding rise in M200 monomer concentration, but this may be less than accounted for by the loss of filaments if the drop in turbidity was also associated with a rise in small M200 oligomers with a lower specific turbidity. […]

In a further data set the target is T1, S100A4 (Homo sapiens, UniProt P26447).
T1 construct: We used full-length S100A4 for this analysis; made in house; host or cells: Escherichia coli BL21(DE3)
In words: Summary of rate and equilibrium constants defined according to Scheme 1. It counts as binding. The text has this: The interaction of myosin tail fragments (M) with S100A4 depends on [Ca^2+], with little detectable binding in the absence of Ca^2+.[2,7,17] Scheme 1 presents a minimal pathway describing the thermodynamics and kinetics of this interaction, where arrow lengths indicate the approximate position of the equilibria involved.
[formula] Scheme 1 Ca2+ and myosin peptide (M) binding to S100A4.
The binding of Ca^2+ and a target peptide to S100A4, as shown in Scheme 1, is thermodynamically coupled so that K1K2 = K0K3. For simplicity, we assume a 1:1 stoichiometry and independent binding sites, which are unlikely to be true at least for the longer fragments. However, the trends in binding remain valid for more complex cases. Binding of target peptides to S100A4 in the absence of Ca^2+ is weak (K0 > 100 μM), while binding of target peptides to S100A4 in the presence of Ca^2+ (K2) is around a micromolar or less for longer fragments. Knowing that Ca^2+ binding to S100A4 has K1 = 2–5 μM (from the ITC data above and the literature[14,17,18]) requires that Ca^2+ binding to the M–S100A4 complex be very tight (K3 < 0.15 μM and even lower for M200). The latter cannot be easily determined directly as it requires protein concentrations greater than K0 (i.e., >>100 μM) so that the proteins remain bound together throughout the titration with Ca^2+. However, K3 is readily determined by calculation because values or limits for K0, K1, and K2 are available (Table 2). This aspect is addressed further below for M200, which has the complication of forming filaments at the ionic strength used.

T1 sequence (P26447 whole entry): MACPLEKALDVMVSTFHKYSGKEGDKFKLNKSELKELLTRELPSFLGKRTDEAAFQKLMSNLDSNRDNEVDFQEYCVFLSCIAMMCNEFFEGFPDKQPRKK

B1: M200: His-tagged human NM-MHC IIA residues Q1761-E1960, V1913I substitution (protein, UniProt P35579 1761-1960, looked up, variant V1913I)
chain: QINTDLNLERSHAQKNENARQQLERQNKELKVKLQEMEGTVKSKYKASITALEAKIAQLEEQLDNETKERQAACKQVRRTEKKLKDVLLQVDDERRNAEQYKDQADKASTRLKQLKRQLEEAEEEAQRANASRRKLQRELEDATETADAMNREISSLKNKLRRGDLPFVVPRRMARKGAGDGSDEEVDGKADGAEAKPAE
modifications: His tag
notes: His-tagged human NM-MHC IIA residues Q1761-E1960, V1913I substitution
B1: the “turbidity change on dilution relative to that with S100A4” value with M200 filaments (2-fold dilution at 100 mM NaCl, no S100A4) was 10%. In addition, in the data set on M200 filaments (NaCl jump 100 to 120 mM), the “fast rate constant, no S100A4” value was 0.33 s^− 1 and the “slow rate constant, no S100A4” value is on record as 0.037 s^− 1. Besides, the “turbidity of initial value after NaCl jump” value with M200 filaments (NaCl jump, no S100A4) is on record as “about 50%”. The molecule also came in with a k3 with S100A4 (Ca^2+ association to peptide–S100A4) of more than 2000 μM^− 1 s^− 1. Also, in the data set with S100A4 (Ca^2+ binding to peptide–S100A4, limit from K3 = K1K2/K0, read-out: K3), the Kd was less than 0.15 nM. In the data set with S100A4 (Ca^2+ dissociation from peptide–S100A4–Ca^2+), the “k− 3” value worked out at 0.3 s^− 1. In addition, in the data set with S100A4 (peptide dissociation from S100A4–Ca^2+), the “k− 2” value is given as less than 0.3 s^− 1.
